In patent US11504432B2, “Delivery system for targeted delivery of a therapeutically active payload” (TECHNISCHE UNIVERSITÄT DRESDEN, priority 2016, dated 2022):
One block for each molecule: values may come before it.

How the values were obtained:
[1] = tested on: 293T-Blue^TLR3/PSCA reporter cells; experiment: NFkappaB activation, SEAP reporter, PSCA-positive cells; type: cell-based
Description: The target delivery of TLR3 agonist Riboxxol® to the endosomal compartment of PSCA-positive cells and the resulting NFkappaB activation and induction of apoptosis by the use of the BIC delivery system was investigated using 293T-Blue^TLR3/PSCA reporter cells. 50.000 293T-Blue^TLR3/PSCA cells in 200 μl HEKBlue detection medium were plated in 96 well plates and treated with increasing concentrations of BICs containing RIBOXXOL® and scFv(h-AM1)-BAP or were treated with BICs containing Riboxxol® and scFv(MR1.1)-BAP, which should not bind to the PSCA-positive target cells. The induced secretion of the reporter SEAP, or its enzymatic activity in HEK Blue medium was measured at 655 nm in an ELISA reader after 24 h. […] […] A plateau of activation is reached at a concentration of the anti-PSCA immunoconjugate at 25 nM. […] Apoptosis levels of treated cells were normalized to untreated 293T-Blue^TLR3/PSCA cells by subtracting basal apoptosis levels from induced apoptosis-levels in the treatment groups.

[2] = tested on: 293T^EGFRvIII/c-Luc cells; experiment: Luciferase knockdown by scFv-P-BAP guided polyplexes; type: cell-based; conditions: inhibitor added 4 h prior transfection
Description: As positive RNAi control, cells were transfected with siLuc3 using the transfection reagent Interferin®. For investigating the route of internalization, endocytose inhibitors 0.6 μg/ml filipin III and 6 μg/ml chlorpromazine (both Sigma Aldrich) were added 4 h prior transfection of cells.

EGFRvIII = target: T1, EGFRvIII (Homo sapiens, UniProt P00533, DELINS30-297G); experiment: Flow cytometry binding of scFvs to 293T^EGFRvIII cells; conditions: 1 μg scFv
T1 construct: expressed in transfected cells; host or cells: 293T cells with ectopic EGFRvIII (293T^EGFRvIII)
Description: To investigate scFv(MR1.1)-P-BAP binding to EGFRvIII-293T target cells with ectopic expression of the cognate surface receptor, 2×10^5 cells were incubated with 1 μg of recombinant scFv and scFv-P-BAPs, respectively. The bound antibodies were detected either via their myc-epitope using anti-myc/FITC antibody or via their biotin residue using anti-biotin/PE antibody (1:10; Miltenyi Biotec, Bergisch Gladbach, Germany). Cells stained only with secondary antibody were included as a control. […] At least 10,000 stained cells were measured by flow cytometry (MACSQuant, Miltenyi Biotec, Bergisch Gladbach, Germany) and analyzed by FlowJo software version 7.6.5 (TreeStar Inc., Ashland, USA).

avidin = avidin (Gallus gallus, UniProt P02701); experiment: Conjugation of biotinylated scFvs to avidin, Western blot; type: binding; conditions: molar ratios from 1:1 to 4:1
Description: Conjugation of recombinant biotinylated single chain antibodies was investigated in Western blot experiments. For this 10.7 pmol of recombinant scFv-P-BAP and scFv-BAP was incubated for 30 min at RT with […] as depicted in FIG. 11c for scFv(MR1.1)-P-BAP and FIG. 12 for scFv(MR1.1)-BAP and scFv(h-AM1)-BAP. The avidin/scFv-BAP complexes were subjected to non-reducing SDS-PAGE. After protein transfer onto a Westran PVDF membrane (Whatman GmbH, Dassel, Germany), proteins were detected by a monoclonal murine c-myc-specific antibody (1:5,000, Invitrogen, Carlsbad, USA) and a HRP-labeled rabbit anti-mouse secondary antibody (1:1,000; Dako, Glostrup, Denmark), and after stripping of the membranes by a HRP-conjugated biotin-specific antibody (1:8,000; Sigma-Aldrich, St. Louis, USA). Membranes were visualized and documented using the Luminata Classico Western HRP substrate (Merck Millipore, Darmstadt, Germany) and the imaging system LAS3000 (FujiFilm Europe, Düsseldorf, Germany).

tumors = conditions: in vivo; cited from earlier work
wild type EGFR = wild type EGFR (Homo sapiens, UniProt P00533); conditions: cited from earlier work
293T^EGFRvIII cells = experiment: EGFRvIII receptor internalization, FACS; type: cell-based; conditions: crosslinking with scFv plus anti-myc-antibodies, 2 h to 48 h
Description: (§1) For studies of EGFRvIII and PSCA internalization, 293T^EGFRvIII and 293T^PSCA cells, respectively, were carefully detached with Trypsin/EDTA solution (Sigma/Aldrich). After repeated washing in 1 mg/ml BSA/PBS, 2×10^5 cells were fed with fresh medium and plated in 96 round bottom wells. Crosslinking of receptors was accomplished by incubation with 1 μg parental scFv specific for the cognate receptor for 1 h at 4° C. followed by extensive washing with PBS and treatment with 0.5 μg of biotin-labelled anti-myc antibody (Miltenyi Biotech) for 10 min at 4° C., followed by extensive washing with PBS and feeding with fresh medium. To achieve a monovalent binding of receptors, the 293T^EGFRvIII and 293T^PSCA cells were incubated only with scFv(MR1.1) and scFv(AM1), respectively, for 1 h at 4° C., followed by extensive washing with PBS and feeding with fresh medium. EGFRvIII surface expression was monitored after incubation at 37° C. in a humidified CO2 incubator after 2 h, 4 h, 8 h, 24 h, and 48 h utilizing an anti-biotin-PE antibody (Miltenyi Biotech) for the crosslinked receptors and incubation of biotinylated anti-myc antibody for 10 min at 4° C. followed by anti-biotin-PE antibody staining for 10 min at 4° C., for cells with monovalent binding of receptors. All obtained data were analyzed by FlowJo software version 7.6.5 (TreeStar Inc., Ashland, USA).

EGFRvIII neo-epitope = EGFRvIII neo-epitope (Homo sapiens, UniProt P00533, DELINS30-297G); conditions: cited from earlier work
293T^PSCA cells = experiment: PSCA receptor internalization, FACS; type: cell-based; conditions: crosslinking with scFv plus anti-myc-antibodies, 2 h to 48 h
Description: as §1

PSCA = target: T2, PSCA (Homo sapiens, UniProt O43653); experiment: Binding affinity (KD) by flow cytometry on 293T^PSCA cells; conditions: FIG. 9
T2 construct: expressed in transfected cells; host or cells: 293T^PSCA cells
T2 sequence (O43653 12-83): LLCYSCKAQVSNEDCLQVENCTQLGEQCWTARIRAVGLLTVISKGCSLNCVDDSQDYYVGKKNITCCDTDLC
Description: For determination of binding affinity, murine scFv(AM1) and the humanized scFv(h-AM1) were incubated in descending concentrations with 293T^PSCA cells. After detection with a secondary anti-myc-PE-antibody the MFIs were determined using a MACSQuant Cytometer (Miltenyi Biotech) and FlowJo software and the Kd values were calculated with the PRISM software program. FIG. 9 depicts the graphs for the KD value calculations.

Sequence of avidin (P02701 25-152): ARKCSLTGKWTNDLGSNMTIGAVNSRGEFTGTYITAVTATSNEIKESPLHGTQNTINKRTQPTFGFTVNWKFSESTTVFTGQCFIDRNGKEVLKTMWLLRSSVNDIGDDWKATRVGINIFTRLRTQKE

Molecule: CN(C)CCCN1c2ccccc2Sc2ccc(Cl)cc21 [chlorpromazine, reference compound]
inhibition of chlatrin-mediated endocytosis of BICs ([1]; 31 μg/ml of chlorpromazine): effectively inhibited

Molecule: CCCCC[C@@H](O)[C@H]1C(=O)O[C@H](C)[C@@H](O)/C=C/C=C/C=C/C=C/C=C(\C)[C@@H](O)C[C@H](O)C[C@H](O)C[C@H](O)C[C@H](O)C[C@H](O)C[C@@H]1O [filipin III, reference compound]
effect on induction of the reporter SEAP by BICs ([1]; 0.3 μg/ml filipin III): slightly weakened induction
effect of endocytosis inhibitor on delivery of EGFRvIII-specific polyplexes [2]: inhibited

binding to EGFRvIII-positive 293T^EGFRvIII cells (EGFRvIII): bind
conjugation to avidin (avidin): efficiently conjugated
B1: scFv(MR1.1)-P-BAP: scFv(MR1.1) fused to PSTCD biotin acceptor peptide, SEQ ID NO: 3 (protein)
scFv: METDTLLLWVLLLWVPGSTGDAAQPARRARRTKLGTELGSHMQVKLQQSGGGLVKPGASLKLSCVTSGFTFRKFGMSWVRQTSDKRLEWVASISTGGYNTYYSDNVKGRFTISRENAKNTLYLQMSSLKSEDTALYYCTRGYSPYSYAMDYWGQGTTVTVSSSGGGSGGGGSGGGGSDIELTQSPASLSVATGEKATIRCMTSTDIDDDMNWYQQKPGEPPKFLISEGNTLRPGVPSRFSSSGTGTDFVFTIENTLSEDVGDYYCLQSWNVPLTFGDGTKLEITKLSSKLKVTVNGTAYDVDVDVDKSHENPMGTILFGGGTGGAPAPAAGGAGAGKAGEGEIPAPLAGTVSKILVKEGDTVKAGQTVLVLEAMKMETEINAPTDGKVEKVLVKERDAVQGGQGLIKIGDLELIEGSSGPEQKLISEEDLNSAVDHHHHHH
modifications: Single chain antibody fragment

B2: scFv(MR1.1): EGFRvIII-specific single chain fragment variable from the literature [30, 31] (protein)
scFv: QVKLQQSGGGLVKPGASLKLSCVTSGFTFRKFGMSWVRQTSDKRLEWVASISTGGYNTYYSDNVKGRFTISRENAKNTLYLQMSSLKSEDTALYYCTRGYSPYSYAMDYWGQGTTVTVSSSGGGSGGGGSGGGGSDIELTQSPASLSVATGEKATIRCMTSTDIDDDMNWYQQKPGEPPKFLISEGNTLRPGVPSRFSSSGTGTDFVFTIENTLSEDVGDYYCLQSWNVPLTFGDGTKLEIT
modifications: left off: small tags and cut ends
retention in tumors (tumors): excellent retention
cross-reaction with wild type EGFR (wild type EGFR): does not cross-react
EGFRvIII internalization (293T^EGFRvIII cells): time-dependent
affinity to EGFRvIII neo-epitope (EGFRvIII neo-epitope): high affinity

binding to EGFRvIII-positive 293T^EGFRvIII cells (EGFRvIII): did not recognize
B3: scFv(AM1): murine 7F5-derived single chain antibody fragment specific for prostate stem cell antigen (PSCA) (protein, listed as Mus musculus)
scFv: METDTLLLWVLLLWVPGSTGDAAQPARRARRTKLGTELGSQVKLQESGGGLVQPGGSLKLSCVASGFTFSSYTMSWVRRTPEKRLEWVAYIHNGGGHTYYPDTIKGRFTISRDNAKNTLFLEMSSLKSEDTAMYYCTRRMYYGNSHWYFDVWGAGTSVTVSSAKTTPPSVYGGGGSGGGGSGGGGSTNSDIVMTQSPSSLSASLGDRVTINCRTSQDISNYLNWYQLTPDGTVKLLIYYTLKLNSGVPSRFSGSGSGTDYSLTINNLEKEDFATYFCQQSKTLPWTFGGGTKLEIKRADAAPTVSGPKLSSKLKVTVNGTAYDVDVDVDKSHENPMGTILFGGGTGGAPAPAAGGAGAGKAGEGEIPAPLAGTVSKILVKEGDTVKAGQTVLVLEAMKMETEINAPTDGKVEKVLVKERDAVQGGQGLIKIGDLELIEGSSGPEQKLISEEDLNSAVDHHHHHH

binding to EGFRvIII-positive 293T^EGFRvIII cells (EGFRvIII): did not recognize
B4: scFv(AM1)-P-BAP: scFv(AM1) fused to PSTCD biotin acceptor peptide, SEQ ID NO: 1 (protein, listed as Mus musculus)
scFv: B3 scFv

affinity to PSCA compared to parental murine scFv (PSCA): improved affinity
B5: scFv(h-AM1): humanized PSCA-specific scFv with c-Myc-Tag, Bio-Tag BAP and His6, SEQ ID NO: 2 (protein)
scFv: METDTLLLWVLLLWVPGSTGDAAQPARRARRTKLGTELGSEVQLLESGGGLVQPGGSLRLSCVASGFTFSSYTMSWVRQAPGKGLEWVSYIHNGGGHTYYADSVKGRFTISRDNSKNTLYLQMNSLRAEDTAVYYCTRRMYYGNSHWYFDVWGAGTRVTITSAKTTPPSVYGGGGSGGGGSGGGGSTNSDIQMTQSPSSLSASVGDRVTITCRTSQSISNYLNWYQQKPGKAPKLLIYYTLKLNSGVPSRFSGSGSGTDFTLTISSLQPEDFATYYCQQSKTLPWTFGGGTKLEIKRADAAPTVSGPEQKLISEEDLNSAVDMSGLNDIFEAQKIEWHEGAPSSHHHHHH
modifications: Humanized antibody
PSCA internalization (293T^PSCA cells): time-dependent
